Columns and labels:
[1] = target: IL-22 receptors on COLO205 cells (UniProt Q8N6P7)
[2] = target: IL-22 receptors on COLO205 cells (UniProt Q8N6P7); remark: listed apart in the source

IL-22 receptors on COLO205 cells, sequence (Q8N6P7 16-574 limits assumed, chain 1 of 2): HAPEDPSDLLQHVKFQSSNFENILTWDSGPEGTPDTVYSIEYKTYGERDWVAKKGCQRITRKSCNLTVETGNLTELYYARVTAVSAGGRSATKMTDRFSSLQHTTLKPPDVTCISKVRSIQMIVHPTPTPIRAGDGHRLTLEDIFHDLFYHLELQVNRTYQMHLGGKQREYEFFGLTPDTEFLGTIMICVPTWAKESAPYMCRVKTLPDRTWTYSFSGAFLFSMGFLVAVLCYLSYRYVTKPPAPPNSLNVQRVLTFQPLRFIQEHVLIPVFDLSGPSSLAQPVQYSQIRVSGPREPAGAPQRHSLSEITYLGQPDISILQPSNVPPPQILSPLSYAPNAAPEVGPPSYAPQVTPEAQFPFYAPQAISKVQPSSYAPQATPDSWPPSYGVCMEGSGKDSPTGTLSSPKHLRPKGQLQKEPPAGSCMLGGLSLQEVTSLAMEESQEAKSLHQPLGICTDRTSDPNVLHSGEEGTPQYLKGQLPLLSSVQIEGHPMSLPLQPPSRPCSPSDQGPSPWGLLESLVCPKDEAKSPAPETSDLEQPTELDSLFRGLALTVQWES
IL-22 receptors on COLO205 cells, sequence (Q08334 20-325 limits assumed, chain 2 of 2, further chain): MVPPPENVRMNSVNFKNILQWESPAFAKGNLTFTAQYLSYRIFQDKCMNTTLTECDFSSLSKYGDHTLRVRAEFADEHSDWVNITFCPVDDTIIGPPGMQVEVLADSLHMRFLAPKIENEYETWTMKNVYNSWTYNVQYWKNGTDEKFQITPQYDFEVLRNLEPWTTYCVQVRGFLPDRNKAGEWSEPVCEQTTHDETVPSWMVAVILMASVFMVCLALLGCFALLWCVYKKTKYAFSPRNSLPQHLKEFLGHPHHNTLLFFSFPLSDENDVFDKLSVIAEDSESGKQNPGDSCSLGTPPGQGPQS

EC50 (read off the curve) of IL-10 secretion by COLO205 cells, human IL-22 incubated with uPA [1]: 0.05 nM
EC50 (read off the curve) of IL-10 secretion by COLO205 cells, human IL-22 without uPA [2]: 0.08 nM
Substance: human IL-22 (from UniProt Q9GZX6) (ligand)

Source: patent US20230069996A1
